Reference: the supplement of paper PMC9170038

Test system: MS2 coat protein
Test: apparent KD of MS2 coat protein; designed switch direction (-1 OFF switch, 1 ON switch): -1; higher = weaker reporter binding
Method in brief: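 An oligonucleotide input, 200 uM small-molecule ligand, or no input was present during titration of SNAP-549-labelled MS2 coat protein, which was doubled from 0.7 or 1.5 nM to 3 µM. Designed RNA switches had been transcribed on Illumina chips by stalled E. coli RNA polymerase. Apparent KD per design is the median over clusters of curves fitted to normalised cluster fluorescence.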

[1] = Eterna round: R95, input ligand: FMN 200 uM
[2] = Eterna round: R95, input ligand: microRNA oligo, concentration not stated
[3] = Eterna round: R95, input ligand: none
[4] = input ligand: microRNA oligo, concentration not stated

Sequence	apparent KD of MS2 coat protein [1]	apparent KD of MS2 coat protein [2]	apparent KD of MS2 coat protein [3]	apparent KD of MS2 coat protein (input ligand: FMN 200 uM)	apparent KD of MS2 coat protein [4]	apparent KD of MS2 coat protein (input ligand: none)
GAAAAGGUAGGAUAUACGAUAAGAAAGGGUAGAGAAUAAACACAUGAGGAUCACCCAUGUAGAAGGACCAAAAG [salish99_ex2_r3_101] (puzzle: Exclusion 2)	148 nM	30 nM	26 nM	–	–	–
GGCUGACAUGUAGGAUAUCUGCACGAUUAGUGCAGAGAAGGACAUGAGGAUCACCCAUGUAUAGCGACUUCGGUCGCAACAGCC [ENG1/2-A1] (Eterna round: R96, puzzle: Exclusion NG 1)	–	–	–	155 nM	31 nM	40 nM
UUUUUUGUUGUGAGGAUAUCGUAUUCUUUUUGUUACGAGAAGGCACAUGAGGAUCACCCAUGUUUCUUGAUGUU [JR_BMOE4_Sub067] (puzzle: Brourd's mod of Exclusion 4)	–	15.3 nM	–	–	–	–
ACAUGUCAUCGAGGAUAUUGCACACAUGAGGAUCACCCAUGUAUUCGGUUGCUCUUGCGUGAGUUCGAGAAGGCGAUGUACAUU [Ex NG2 #85] (Eterna round: R96, puzzle: Exclusion NG 2)	–	–	–	134 nM	215 nM	262 nM
GAACUGAAGCAUAGCUUUAGUCGUACAUGAGGAUCACCCAUGUAGGAUAUGGUAGGCAUAGCUUACUAGAAGGAUAGAGUGAUC [Mat - Exclusion NG 3 - Mod of JL - D73] (Eterna round: R96, puzzle: Exclusion NG 3)	–	–	–	595 nM	411 nM	243 nM
AUUCCCGGUGUUAGGAUAUCCAACGCCCACGCGAUGGAGAAGGGACAUGAGGAUCACCCAUGUAGAGCUGCAUC [Aredan] (puzzle: Brourd's mod of Exclusion 4)	–	11.7 nM	–	–	–	–
CCGAGGUGGCGGUCCUAUGACAUGAGGAUCACCCAUGUACCUCGCCACGAGCUUUUUGCUCAUCUUAUAAUUCUCGG [Edbibice] (puzzle: Sensor v3, turn-off variant 1)	17.2 nM	18.9 nM	16.6 nM	–	–	–
AGUAACCGUCACGAAAGUGAUGGUUACGCAAGCAAUGAAACAUGAGGAUCACCCAUGUCCUCAUUUGCUCGUCUUAU [Sensor 3 - 41] (puzzle: Sensor v3, turn-off variant 2)	24.6 nM	347 nM	25.7 nM	–	–	–
CUCCGGCGUGUAGGAUAUGGAUCCGAUUAGGAUCCAGAAGGACAUGAGGAUCACCCAUGUACAUGUAAACAGUCAUCACCGGGC [salish99_ExNG1_r04_205] (Eterna round: R96, puzzle: Exclusion NG 1)	–	–	–	131 nM	18.2 nM	21.4 nM
AAUUAUUGAUGAGGAUAUUGUGGUGAAACACGACAAGAAGGCAUUAUUCACAUGAGGAUCACCCAUGUGAGCCUGAUGCAUAUA [Ex NG1 #60] (Eterna round: R96, puzzle: Exclusion NG 1)	–	–	–	–	11.5 nM	–
AACGCGUCAGGAUAUAGCGAAACUUAGGUAGUACAACCAUACUAGAAGGGACAUGAGGAUCACCCAUGUGGGUA [JR_Exc004_Sub210] (Eterna round: R96, puzzle: Exclusion 4)	–	–	–	171 nM	104 nM	142 nM
AAGCAGCGAGGAUAUGCUUGCGCGUGUUCUAGUUGAAAUAAACUUGAGGAUCACCCAAGUAGAAGGCGCAACCG [EX2 #44] (Eterna round: R97, puzzle: Exclusion 2)	–	–	–	437 nM	–	65.6 nM
AGUAAGCUAGGAUAUGCUUUGGGAAAGCAUUCCUUCGAUAAACUUGAGGAUCACCCAAGUAGAAGGAGCUUACU [jl-ex2.4.51 ViennaUCT mod] (Eterna round: R97, puzzle: Exclusion 2)	–	–	–	22.9 nM	–	12 nM
AAUUAUUAUUGAGGAUAUCGUAUUGAAACAAUACGAGAAGGCGGGAUAAACAUGAGGAUCACCCAUGUGAGCCUGAUGCUUGUG [Ex NG1 #41] (Eterna round: R96, puzzle: Exclusion NG 1)	–	–	–	–	13.4 nM	–
CAGUACUGAGGAUAUACAUGAGGAUCACCCAUGUGUGUGAAAUUUAUGUGGUUGUUUUGUAGAAGGCAGUACUG [JR_Ex3_Sub029] (Eterna round: R97, puzzle: Exclusion 3)	–	–	–	92.1 nM	–	855 nM
GAUGUGGGUUUUCAGAGUAACAUGAGGAUCACCCAUGUAGAAGUUGAAGGUAUCAAGCGAAUGGCUCGUCAAAUGUG [JR_SV3TOV1_Sub049] (puzzle: Sensor v3, turn-off variant 1)	229 nM	182 nM	287 nM	–	–	–
AUUUAAUUUAAUAAGAUCACAUGAGGAUCACCCAUGUAUAUAUAGGAUAUCAGCUCGAAUAGAGCUGAGAAGGAUAUAUACUAU [ExNG3/7-B4] (Eterna round: R96, puzzle: Exclusion NG 3)	–	–	–	–	276 nM	–

Sequence	apparent KD of MS2 coat protein [1]	apparent KD of MS2 coat protein [2]	apparent KD of MS2 coat protein [3]	apparent KD of MS2 coat protein (input ligand: FMN 200 uM)	apparent KD of MS2 coat protein [4]	apparent KD of MS2 coat protein (input ligand: none)
AAAAGCCAAGGAUAUACAUGAGGAUCACCCAUGUAAGAAAUGGGCGCUACCGUUCCGUGUAGAAGGUGGGAAAA [Inuserce] (puzzle: Exclusion 3)	–	26 nM	–	–	–	–
AAGAACGUGCAAGGAUAUCUCCACCAAACCGGCAGAGAAGGUGCACAUGAGGAUCACCCAUGUGACCUAAAGCUCUUAUGAGCC [Raledigeen] (Eterna round: R96, puzzle: Exclusion NG 1)	–	–	–	30.6 nM	13.1 nM	17.3 nM
UCUCGCGGGCAAGGAUAUCCUACGUUGUUCUGGCCCGGGCAUGUUACAUGAGGAUCACCCAUGUGGGAGAAGGUGCGCCAGGGC [Design 36] (Eterna round: R96, puzzle: Exclusion NG 2)	–	–	–	36.8 nM	28.2 nM	36.7 nM
CACCGUAACUGAGGAUAUCAAACAUGAGGAUCACCCAUGUAAUAAAUGAGAAUUUCGAAUGUACCUGAGAAGGCAGAAACCGGC [Ostricism 84 - Jieux - Exclusion NG 2] (Eterna round: R96, puzzle: Exclusion NG 2)	–	–	–	–	25.1 nM	–
GUAACAUUAAAGGCUCGUGACAUGAGGAUCACCCAUGUAUGGACCGUUCCACUUACCGACAAGCUGUGAUCGUCCUU [Eternabot (L2) Solution 22] (Eterna round: R97, puzzle: Sensor, turn-off variant 1)	–	–	–	40.8 nM	–	42 nM
AAGAGGUCAGGAUAUACGGAAAGAGAGAGAAGGUGAGGGUAACAUGAGGAUCACCCAUGUAGAAGGGACUAAGA [JR_Exclu2_Sub074] (puzzle: Exclusion 2)	54.5 nM	44.8 nM	38.5 nM	–	–	–
AAGGUCAAGAAUGGAAAUUAAAUACAUGAGGAUCACCCAUGUCAGGAUAUCCAGUAGAGACCUAGGGAGAAGGGACAUGAAAAG [Esonanza] (Eterna round: R96, puzzle: Exclusion NG 3)	–	–	–	16.1 nM	10.3 nM	14.7 nM
AAGGAAAAGUGAGGAUAUGGAAAUUUGGUGAUAACAUGAGGAUCACCCAUGUGAAAACAAUAAAAUUAGAAGGUAUAAAGAAAA [AK ExNG2-1.1] (Eterna round: R96, puzzle: Exclusion NG 2)	–	–	–	120 nM	66.7 nM	107 nM
UGAGUGGUGCGAGGAUAUACAUGAGGAUCACCCAUGUAAACGUGUGAGGCAAAGCCUCACACGAUGUAGAAGGCGCACUACUCU [Mat - Exclusion NG 2 - Mod of JL - D14] (Eterna round: R96, puzzle: Exclusion NG 2)	–	–	–	24.7 nM	12.4 nM	19.5 nM
AGUCCUGGAGUUAGGAUAUGGAGUAUCGCUGCGCUUCAGAAGGGACUUGAGGAUCACCCAAGUAGCCGUGAGGG [salish99_bmod_ex4_r4_006] (Eterna round: R97, puzzle: Brourd's mod of Exclusion 4)	–	–	–	82.9 nM	–	60.2 nM
AAAAGAAAAGUAGGAUAUGUGAAAGGAAGUGUAACAGAAGGACUGUGGGUCUUCCGACAUGAGGAUCACCCAUGUAAAAGAAAA [PowerStrip EXNG 1.8] (Eterna round: R96, puzzle: Exclusion NG 1)	–	–	–	114 nM	6.35 nM	53.9 nM
ACCAUUUCGGUGGUCUAAGAACAUGAGGAUCACCCAUGUAUCGAGGAUAUCCCAAGCAGACUAUGGGAGAAGGUGAACAGAAGG [Eternabot solution 24] (Eterna round: R96, puzzle: Exclusion NG 3)	–	–	–	40.1 nM	25.6 nM	41.7 nM
AAGAAGAUCAAAGGAUAUGGAGCUGAAACGGCGCUAGAAGGUUGUCUAGUGUAACAUGAGGAUCACCCAUGUAGGUACCUCUAA [AK ExNG1-V2-1.1] (Eterna round: R96, puzzle: Exclusion NG 1)	–	–	–	730 nM	376 nM	847 nM
CCCAGUUAGGAAGGAUAUUGUACAUGAGGAUCACCCAUGUAAUAAAUGAGGAUUUCGGGUGUCUACAAGAAGGUCCGGAUAGGC [Ostracism 13 - Jieux - Exclusion NG 2] (Eterna round: R96, puzzle: Exclusion NG 2)	–	–	–	110 nM	39.2 nM	59.4 nM
GAUCAUGCAGGAUAUACAGUAACCAUGAAAACAUGGUUGUAACAUGAGGAUCACCCAUGUAGAAGGGCAUGAUC [Omei Ex2 A4] (Eterna round: R97, puzzle: Exclusion 2)	–	–	–	23.5 nM	–	15.4 nM
AGAAAUGCCCAUGGCCGCAAGCUUUUUACUUGUCUUACCACAUGAGGAUCACCCAUGUGACAUGGGCUCCUUAUAAU [Oranla] (puzzle: Sensor v3, turn-off variant 2)	15.8 nM	7.4 nM	13 nM	–	–	–
